In paper PMC10349855, “Structural basis for specific RNA recognition by the alternative splicing factor RBM5”:
Positions count from the first letter of the chain named.

What was measured:
RBM5 RRM2 = molecular target: T1, RBM5 RRM2 (human, UniProt P52756 231-315); test: ITC; average of two; ITC: 20 mM MES pH 6.5, 100 mM NaCl, 2 mM BME, 25 C; NMR: 20 mM MES pH 6.5, 100 mM (single RRMs) or 400 mM (multidomain) NaCl, 1 mM DTT, 298 K; details: protein: recombinant; tags: His-Trx tag, TEV cleaved
T1 sequence: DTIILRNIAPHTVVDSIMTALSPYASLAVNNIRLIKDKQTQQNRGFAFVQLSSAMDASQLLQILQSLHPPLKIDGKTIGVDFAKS

RBM5 RRM1-ZnF1S-RRM2 = molecular target: T2, RBM5 RRM1-ZnF1S-RRM2 (human, UniProt P52756 94-315, C191G); test: ITC; Zn; 20 mM MES pH 6.5, 100 mM NaCl, 2 mM 2-mercaptoethanol, 25 C; protein 10-30 uM in the cell; one-site fit; details: tags: His-thioredoxin, TEV-cleaved (scar left out)
T2 sequence: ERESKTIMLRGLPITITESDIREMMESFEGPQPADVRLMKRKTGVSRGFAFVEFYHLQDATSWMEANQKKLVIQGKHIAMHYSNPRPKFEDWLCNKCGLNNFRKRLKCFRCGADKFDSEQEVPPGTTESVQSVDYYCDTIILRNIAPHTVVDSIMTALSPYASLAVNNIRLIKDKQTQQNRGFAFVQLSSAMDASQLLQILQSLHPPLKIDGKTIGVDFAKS

RBM5 RRM1-ZnF1 R198E [1] = molecular target: T3, RBM5 RRM1-ZnF1 R198E (Homo sapiens, UniProt P52756 94-210, I107T;R198E); test: as above; details: tags: none; N-terminal Met-Gly from the NcoI site (left out)
T3 sequence: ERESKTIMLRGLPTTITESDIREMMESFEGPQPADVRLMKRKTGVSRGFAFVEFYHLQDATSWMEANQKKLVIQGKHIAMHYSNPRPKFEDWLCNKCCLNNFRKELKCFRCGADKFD

RBM5 RRM1-ZnF1S [2] = molecular target: T4, RBM5 RRM1-ZnF1S (Homo sapiens, UniProt P52756 94-210, I107T;C191G); test: as above; details: tags: none; N-terminal Met-Gly from the NcoI site (left out)
T4 sequence: T3 sequence with C98G, E105R

RBM5 RRM1-ZnF1 wt [3] = molecular target: T5, RBM5 RRM1-ZnF1 wt (Homo sapiens, UniProt P52756 94-210, I107T); test: as above; details: tags: none; N-terminal Met-Gly from the NcoI site (left out)
T5 sequence: T3 sequence with E105R

RBM5 RRM1-ZnF1 F142/144A = molecular target: T6, RBM5 RRM1-ZnF1 F142/144A (Homo sapiens, UniProt P52756 94-210, I107T;F142A;F144A); test: as above; details: tags: none; N-terminal Met-Gly from the NcoI site (left out)
T6 sequence: T3 sequence with F49A, F51A, E105R

RBM5 RRM1-ZnF1 F202A [4] = molecular target: T7, RBM5 RRM1-ZnF1 F202A (Homo sapiens, UniProt P52756 94-210, I107T;F202A); test: as above; details: tags: none; N-terminal Met-Gly from the NcoI site (left out)
T7 sequence: T3 sequence with E105R, F109A

RBM5 RRM1-ZnF1 wt [5] = molecular target: T8, RBM5 RRM1-ZnF1 wt (human, UniProt P52756 94-210); test: ITC; average of two; text 153 nM; ITC: 20 mM MES pH 6.5, 100 mM NaCl, 2 mM BME, 25 C; NMR: 20 mM MES pH 6.5, 100 mM (single RRMs) or 400 mM (multidomain) NaCl, 1 mM DTT, 298 K; details: protein: recombinant
T8 sequence: T3 sequence with T14I, E105R

RBM5 RRM1 = molecular target: T9, RBM5 RRM1 (human, UniProt P52756 94-184); test: ITC; 20 mM MES pH 6.5, 100 mM NaCl, 2 mM 2-mercaptoethanol, 25 C; protein 10-30 uM in the cell; one-site fit; details: tags: His-thioredoxin, TEV-cleaved (scar left out)
T9 sequence: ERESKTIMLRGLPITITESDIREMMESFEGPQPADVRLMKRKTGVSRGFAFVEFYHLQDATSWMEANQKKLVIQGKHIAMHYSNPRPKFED

RBM5 RRM1-ZnF1 R198E [6] = molecular target: T10, RBM5 RRM1-ZnF1 R198E (human, UniProt P52756 94-210, R198E); test: ITC; ITC: 20 mM MES pH 6.5, 100 mM NaCl, 2 mM BME, 25 C; NMR: 20 mM MES pH 6.5, 100 mM (single RRMs) or 400 mM (multidomain) NaCl, 1 mM DTT, 298 K; details: protein: recombinant
T10 sequence: T3 sequence with T14I

RBM5 RRM1-ZnF1 F202A [7] = molecular target: T11, RBM5 RRM1-ZnF1 F202A (human, UniProt P52756 94-210, F202A); test: as above; details: protein: recombinant
T11 sequence: T3 sequence with T14I, E105R, F109A

[8] = molecular target: T12, RBM5 RRM1-ZnF1 F142A/F144A (human, UniProt P52756 94-210, F142A;F144A); test: as above; details: protein: recombinant
T12 sequence: T3 sequence with T14I, F49A, F51A, E105R

RBM5 RRM1-ZnF1S [9] = molecular target: T13, RBM5 RRM1-ZnF1S (human, UniProt P52756 94-210, C191G); test: as above; details: protein: recombinant
T13 sequence: T3 sequence with T14I, C98G, E105R

RBM5 RRM1-ZnF1S [10] = molecular target: T13, RBM5 RRM1-ZnF1S; test: ITC; N about 0.6; Discussion prints 6 uM but also 2.4-fold weaker than 263 nM; ITC: 20 mM MES pH 6.5, 100 mM NaCl, 2 mM BME, 25 C; NMR: 20 mM MES pH 6.5, 100 mM (single RRMs) or 400 mM (multidomain) NaCl, 1 mM DTT, 298 K; details: protein: recombinant
RBM5 RRM1-ZnF1S [11] = molecular target: T13, RBM5 RRM1-ZnF1S; test: X-ray crystallography; Zn2+; 3.5 A; ITC: 20 mM MES pH 6.5, 100 mM NaCl, 2 mM BME, 25 C; NMR: 20 mM MES pH 6.5, 100 mM (single RRMs) or 400 mM (multidomain) NaCl, 1 mM DTT, 298 K; details: protein: recombinant
RBM5 RRM1-ZnF1 wt [12] = molecular target: T8, RBM5 RRM1-ZnF1 wt; test: ITC; ITC: 20 mM MES pH 6.5, 100 mM NaCl, 2 mM BME, 25 C; NMR: 20 mM MES pH 6.5, 100 mM (single RRMs) or 400 mM (multidomain) NaCl, 1 mM DTT, 298 K; details: protein: recombinant
RBM5 RRM1 F142A/F144A = molecular target: T14, RBM5 RRM1 F142A/F144A (human, UniProt P52756 94-184, F142A;F144A); test: NMR; 20 mM MES pH 6.5, 100 mM NaCl, 1 mM DTT, 25 C; protein 0.1-0.2 mM; details: tags: His-thioredoxin, TEV-cleaved (scar left out)
T14 sequence: T9 sequence with F49A, F51A

B1: GGCU_12 (ssRNA)
RNA: UGGCUCUUCUCU
Kd (RBM5 RRM2): 173000 nM | Kd (RBM5 RRM1-ZnF1S-RRM2): 133 ± 12 nM | Kd (RBM5 RRM1-ZnF1 R198E [1]): 2660 ± 380 nM | Kd (RBM5 RRM1-ZnF1S [2]): 263 ± 27 nM | Kd (RBM5 RRM1-ZnF1 wt [3]): 153 ± 69 nM | Kd (RBM5 RRM1-ZnF1 F142/144A): 448 ± 36 nM | Kd (RBM5 RRM1-ZnF1 F202A [4]): 379 ± 41 nM | Kd (RBM5 RRM1-ZnF1 wt [5]): 153 nM | Kd (RBM5 RRM1): 1880 ± 950 nM | Kd (RBM5 RRM1-ZnF1 R198E [6]): 2700 nM | Kd (RBM5 RRM1-ZnF1 F202A [7]): 379 nM | Kd [8]: 448 nM | Kd (RBM5 RRM1-ZnF1S [9]): 263 ± 27 nM

B2: eGGCU_12 (ssRNA)
RNA: ACUUGGCUCUUCUCU
Kd (RBM5 RRM1-ZnF1S [2]): 641 ± 125 nM | Kd (RBM5 RRM1-ZnF1S [10]): 641 ± 125 nM

B3: GGCU_10 (ssRNA)
RNA: UGGCUCUUCU
binding result (RBM5 RRM1-ZnF1S [11]): binds

B4: CU_9 (ssRNA)
RNA: UCUCUUCUC
Kd (RBM5 RRM1-ZnF1 wt [3]): 5560 ± 2830 nM | Kd (RBM5 RRM1): 19700 ± 6500 nM | Kd (RBM5 RRM1-ZnF1 wt [12]): 6000 nM | binding result (RBM5 RRM1 F142A/F144A): no binding
